Two molecules from patent US11542537B2, “High-purity steviol glycosides” (PureCircle Sdn Bhd, priority 2012, dated 2023) can be followed below.

Common to all, as to format: biochemical
The nature of data set [1]: Catalytic reaction with in-vitro produced UGT91D2, Rebaudioside A to Rebaudioside D. The conditions noted are these: in-vitro produced UGT91D2, 0.1 mM Rebaudioside A, after 120 h. Here is the method: The total volume of the reaction was 0.5 mL with the following composition: 50 mM sodium phosphate buffer pH 7.2, 3 mM MgCl2, 3.8 mM UDP-glucose, 0.1 mM Rebaudioside A and 180 μL of in-vitro produced UGT91D2. The reactions were run at 30° C. on an orbitary shaker at 135 rpm. For each sample, 450 μL of reaction mixture was quenched with 45 μL of 2N H2SO4 and 405 μL of 60% MeOH. After centrifugation, the supernatant was analyzed by HPLC (CAD). HPLC indicated a 4.7% conversion of rebaudioside A to rebaudioside D after 120 h.

Data set [2] is described as follows: Activity for Rubusoside to Rebaudioside E conversion (UGTSL, UGTSL2, UGTLB lysates). As to conditions: based on initial concentration of Rubusoside; reaction time 45 h. (UGTSL), 2 h. (UGTSL2). Here is the method: Activity tests were performed at 3 mL scale with 600 μL of lysate for the transformation of Rubusoside using 0.5 mM of substrate, 2.5 mM of UDP-Glucose and 3 mM MgCl2 in 50 mM Sodium Phosphate buffer at pH 7.2. The HPLC assay was performed as described in EXAMPLE 20.
Activity tests were performed at 3 mL scale with 600 μL of lysate for the transformation of Rubusoside using 0.5 mM of substrate, 2.5 mM of UDP-Glucose and 3 mM MgCl2 in 50 mM Sodium Phosphate buffer at pH 7.2. Samples were taken and analyzed by HPLC. The corresponding chromatogram is depicted in FIG. 65.

The nature of data set [3]: Catalytic test of in-vitro expressed UDP-glucosyltransferases, Rebaudioside A to Rebaudioside D (HPLC CAD). As to conditions: 0.5 mM Rebaudioside A, 30° C., T24h sample. Here is the method: 18 μL of plasmid solution (containing approximately 1.5 μg of plasmid) was used for in-vitro expression according to the Promega S30 T7 High-Yield Protein Expression System (ref: L1110) kit. The expression medium was produced as follows:
The prepared expression medium mix was added to the plasmid solution and the solution was allowed to incubate at 30° C. for 3 hours while mixing the mixture every 45 minutes. 5 μL of the mixture was frozen whereas the remainder was used for the catalytic test for the conversion of Rebaudioside A to Rebaudioside D.
430 μL of a reaction mixture containing 0.5 mM Rebaudioside A, 3 mM MgCl2, 50 mM phosphate buffer (pH7.2) and 2.5 mM UDP-glucose was added to a 1.5 mL sterile microtube. 52 μL of the enzyme expression medium was added and the resulting mixture was allowed to react at 30° C. for 24 hours. 125 μL samples were taken after 2 hours, 16 hours and 24 hours and added to a 115 μL of 60% methanol and 10 μL of 2 N H2SO4. The quenched sample was centrifuged at 18,000 g for 2 minutes at RT. 200 μL was transferred to an HPLC vial and analyzed.
The HPLC assay was performed as follows:
430 μL of a reaction mixture containing 0.5 mM Rebaudioside A, 3 mM MgCl2, 50 mM phosphate buffer (pH7.2) and 2.5 mM UDP-glucose was added to a 1.5 mL sterile microtube. 52 μL of the enzyme expression medium was added and the resulting mixture was allowed to react at 30° C. for 24 hours. 125 μL samples were taken after 2 hours, 16 hours and 24 hours and added to a 115 μL of 60% methanol and 10 μL of 2 N H2SO4. The quenched sample was centrifuged at 18,000 g for 2 minutes at RT.
The HPLC assay was performed as described in EXAMPLE 20.

Data set [4] can be described thus: LCMS of Rubusoside conversion products with UGTSL, UGTSL2, UGTLB. As to conditions: UGTSL2 2 hrs, UGTLB 5 hrs, UGTSL 45 hrs. Here is the method: (§1) Conversion of stevioside with UGTSL and UGTSL2 was conducted in similar manner to Example 28, and the conversion of rubusoside with UGTSL and UGTSL2 was conducted similarly to Example 29. Conversions of rubusoside and stevioside with UGTLB was conducted similarly to Example 32.
(§2) The reaction mixtures were analyzed by LCMS to determine all reaction products.

The nature of data set [5]: LCMS of Stevioside conversion products with UGTSL, UGTSL2, UGTLB. The conditions noted are these: UGTSL2 2 hrs, UGTLB 2 hrs, UGTSL 22 hrs. Here is the method: as §1, §2
Data set [6] is described as follows: LC-MS of Rebaudioside A reaction mixtures of GI No. 460409128 (Example 23). The conditions noted are these: for Steviol glycoside conversion in reaction mixture: Reb A: remaining substrate. Here is the method: The reaction mixtures representing GI No. 460409128, particularly the sample “12400 S115N05A7 T24h 130627ABA” of EXAMPLE 20 (hereinafter S115N05A7), and the sample “12400 S129N04 T45h 130712ABA” of EXAMPLE 22 (hereinafter S129N04) were additionally assayed by LC-MS to identify the unknown glycosides. An Agilent 1200 series HPLC system, equipped with binary pump (G1312B), autosampler (G1367D), thermostatted column compartment (G1316B), DAD detector (G1315C), connected with Agilent 6110A MSD, and interfaced with “LC/MSD Chemstation” software, was used.

B1: UGT91D2: UDP-glucosyltransferase, Genbank ACE87855.1, in-vitro produced (protein, UniProt B3VI56 1-473, looked up)
UDP-glycosyltransferase 91D2: MATSDSIVDDRKQLHVATFPWLAFGHILPYLQLSKLIAEKGHKVSFLSTTRNIQRLSSHISPLINVVQLTLPRVQELPEDAEATTDVHPEDIPYLKKASDGLQPEVTRFLEQHSPDWIIYDYTHYWLPSIAASLGISRAHFSVTTPWAIAYMGPSADAMINGSDGRTTVEDLTTPPKWFPFPTKVCWRKHDLARLVPYKAPGISDGYRMGLVLKGSDCLLSKCYHEFGTQWLPLLETLHQVPVVPVGLLPPEVPGDEKDETWVSIKKWLDGKQKGSVVYVALGSEVLVSQTEVVELALGLELSGLPFVWAYRKPKGPAKSDSVELPDGFVERTRDRGLVWTSWAPQLRILSHESVCGFLTHCGSGSIVEGLMFGHPLIMLPIFGDQPLNARLLEDKQVGIEIPRNEEDGCLTKESVARSLRSVVVEKEGEIYKANARELSKIYNDTKVEKEYVSQFVDYLEKNTRAVAIDHES
modifications: in vitro produced
notes: UDP-glucosyltransferase, Genbank ACE87855.1, in-vitro produced
On to B1, for which the “conversion of rebaudioside A to rebaudioside D (HPLC)” value in data set [1] is reported as 4.7%.

B2: S115N05 A7: UGTSL, Solanum lycopersicum glycosyltransferase, SEQ ID 5; S129N04 is the sample of the in-vivo produced enzyme (protein, listed as Solanum lycopersicum)
chain: MSPKLHKELFFHSLYKKTRSNHTMATLKVLMFPFLAYGHISPYLNVAKKLADRGFLIYFCSTPINLKSTIEKIPEKYADSIHLIELHLPELPQLPPHYHTTNGLPPNLNQVLQKALKMSKPNFSKILQNLKPDLVIYDILQRWAKHVANEQNIPAVKLLTSGAAVFSYFFNVLKKPGVEFPFPGIYLRKIEQVRLSEMMSKSDKEKELEDDDDDDDLLVDGNMQIMLMSTSRTIEAKYIDFCTALTNWKVVPVGPPVQDLITNDVDDMELIDWLGTKDENSTVFVSFGSEYFLSKEDMEEVAFALELSNVNFIWVARFPKGEERNLEDALPKGFLERIGERGRVLDKFAPQPRILNHPSTGGFISHCGWNSAMESIDFGVPIIAMPMHLDQPMNARLIVELGVAVEIVRDDDGKIHRGEIAETLKGVITGKTGEKLRAKVRDISKNLKTIRDEEMDAAAEELIQLCRNGN
For the molecule B2, the “Rubusoside conv. (reactiontime)” value in data set [2] is listed as 70% (45 h.). Also, the “Steviol glycoside conversion in reaction mixture: Reb UNK” value (“Steviol glycoside conversion … Reb UNK” for short) in data set [3] (Reb UNK later identified as reb D2) is listed as 23.3 % area. Besides, the “Steviol glycoside conversion in reaction mixture: Reb A” value (“Steviol glycoside conversion … Reb A” for short) in data set [3] (remaining substrate) is given as 46.7 % area. In addition, in data set [4], the “LC-MS, peak area ratio (%) Reb D” value is reported as 3.45%; the “LC-MS, peak area ratio (%) Reb E” value is 35.88%; the “LC-MS, peak area ratio (%) Rub” value stood at 7.82%; the “LC-MS, peak area ratio (%) Stev” value is reported as 2.37%. For the same molecule, in data set [4], the “LC-MS, peak area ratio (%) Unknown peak #1 (MW804) RT 30.70 min” value was found to be 20.38%; the “LC-MS, peak area ratio (%) Unknown peak #2 (MW804) RT 49.50 min” value was determined as 27.75%; the “LC-MS, peak area ratio (%) Unknown peak #3 (MW804) RT 50.40 min” value is reported as 2.35%. Further, in data set [5], the “LC-MS, peak area ratio (%) Reb D” value worked out at 0.54%; the “LC-MS, peak area ratio (%) Reb E” value turned out to be 49.68%; the “LC-MS, peak area ratio (%) Stev” value is 25.24%; the “LC-MS, peak area ratio (%) Unknown peak #1 (MW966) RT = 22.60 min” value was found to be 3.97%. For the same molecule, the “LC-MS, peak area ratio (%) Unknown peak #2 (MW966) RT = 26.50 min” value in data set [5] is 20.56%. In addition, the “Steviol glycoside conversion … Reb UNK” value in data set [6] (Reb UNK later identified as reb D2, listed as S115N05A7) is reported as 19.93 % area. Moreover, the “Steviol glycoside conversion … Reb UNK” value in data set [6] (Reb UNK later identified as reb D2, listed as S129N04) is 21.22 % area. Further, in data set [6] (listed as S115N05A7), the “Steviol glycoside conversion in reaction mixture: Reb D” value turned out to be 20.35 % area and the “Steviol glycoside conversion … Reb A” value is reported as 53.24 % area. In addition, in data set [6] (listed as S129N04), the “Steviol glycoside conversion in reaction mixture: Reb D” value worked out at 23.73 % area and the “Steviol glycoside conversion … Reb A” value amounted to 49.00 % area. The “Steviol glycoside conversion in reaction mixture: Unknown@RT3.5” value in data set [6] (unknown later identified as reb M2, listed as S115N05A7) was determined as 6.47 % area. Besides, the “Steviol glycoside conversion in reaction mixture: Unknown@RT3.5” value in data set [6] (unknown later identified as reb M2, listed as S129N04) came to 6.05 % area.
